Measured values published in PMC7382273, “Rubisco accumulation factor 1 (Raf1) plays essential roles in mediating Rubisco assembly and carboxysome biogenesis” (Proceedings of the National Academy of Sciences of the …, 2020).

B1: Rubisco accumulation factor 1 (Raf1) (Synechococcus elongatus PCC7942), recombinant (natural protein, UniProt Q31Q05 1-356, looked up)
chain: MREFTPTTLSEEERQELLGQLRRKEGRWLAWARACQTLLKNGLNPQTLFEATGFEPIQQNQITVAMQVYDSILRQDPPAHVRETYQEWGSDLLYELRELDQEQRSLCAQLALERKLDADQIREVAKATKDFCRLPKQPENFDRHPGDAVAHQCWRLAQERTDLTERSRLIARGLQFAQSAGARALIEALLLDLSGVPSRKPPMLPIYRLETEEDLPRLLPFAGTLPLSSSQIEAIAAVEAEGPFGLVSSPQGQQWLALPGWQAILTAEDPIACLEQIDRLPNAPEGPTEAVVLVVDRADRDWDADHFFLVEQAEGARIQWSPSAIAAPILGRLVLILRPKRVLDEAAIATPWQFEE
notes: Raf1, Rubisco accumulation (assembly) factor 1, Synechococcus elongatus PCC7942, gene synpcc7942_0833 amplified from genomic DNA; N-terminal α-helical domain (Raf1α), flexible linker, C-terminal β-sheet dimerization domain (Raf1β); Only the Raf1α domains are modelled in PDB 6SMH; Raf1β could not be resolved; Four Raf1 dimers (eight chains) sit on one RbcL8 core; also called Rubisco assembly …
B2: Rubisco large subunit RbcL (Synechococcus elongatus PCC7942), recombinant, in the RbcL-Raf1 supercomplex (natural protein, UniProt Q31NB3 1-472, looked up)
chain: MPKTQSAAGYKAGVKDYKLTYYTPDYTPKDTDLLAAFRFSPQPGVPADEAGAAIAAESSTGTWTTVWTDLLTDMDRYKGKCYHIEPVQGEENSYFAFIAYPLDLFEEGSVTNILTSIVGNVFGFKAIRSLRLEDIRFPVALVKTFQGPPHGIQVERDLLNKYGRPMLGCTIKPKLGLSAKNYGRAVYECLRGGLDFTKDDENINSQPFQRWRDRFLFVADAIHKSQAETGEIKGHYLNVTAPTCEEMMKRAEFAKELGMPIIMHDFLTAGFTANTTLAKWCRDNGVLLHIHRAMHAVIDRQRNHGIHFRVLAKCLRLSGGDHLHSGTVVGKLEGDKASTLGFVDLMREDHIEADRSRGVFFTQDWASMPGVLPVASGGIHVWHMPALVEIFGDDSVLQFGGGTLGHPWGNAPGATANRVALEACVQARNEGRDLYREGGDILREAGKWSPELAAALDLWKEIKFEFETMDKL
notes: RbcL, large subunit of ribulose-1,5-bisphosphate carboxylase/oxygenase, Synechococcus elongatus PCC7942, gene synpcc7942_1426 amplified from genomic DNA; The complex was captured on Ni-IMAC as a 'His-fusion complex'; also called RbcL8; RbcL8 core; source: E. coli BL21 DE3, co-expressed with Raf1 (pET19b-RbcL-Raf1) and GroES/EL, purified as a complex (Ni-IMAC, Superdex 200)

Biological target: the molecule itself
Assay: cryo-EM structure; RbcL-Raf1 supercomplex co-expressed with GroES/EL in E. coli, purified by Ni-IMAC and Superdex 200; 1.2 mg/mL on Quantifoil grids; 200 kV Tecnai F20; 16,022 particles; 4.28 Å

| Protein | stoichiometry N |
| --- | --- |
| B1 | 2 |
| B2 | 8 |
